Data from PMC4446446 (Nucleic Acids Research, 2015).

B3: SDR5C1 K172A, N-terminally His-tagged (enzyme)
chain: MAAACRSVKGLVAVITGGASGLGLATAERLVGQGASAVLLDLPNSGGEAQAKKLGNNCVFAPADVTSEKDVQTALALAKGKFGRVDVAVNCAGIAVASKTYNLKKGQTHTLEDFQRVLDVNLMGTFNVIRLVAGEMGQNEPDQGGQRGVIINTASVAAFEGQVGQAAYSASAGGIVGMTLPIARDLAPIGIRVMTIAPGLFGTPLLTSLPEKVCNFLASQVPFPSRLGDPAEYAHLVQAIIENPFLNGEVIRLDGAIRMQP
B4: SDR5C1 R226Q, N-terminally His-tagged (enzyme)
chain: MAAACRSVKGLVAVITGGASGLGLATAERLVGQGASAVLLDLPNSGGEAQAKKLGNNCVFAPADVTSEKDVQTALALAKGKFGRVDVAVNCAGIAVASKTYNLKKGQTHTLEDFQRVLDVNLMGTFNVIRLVAGEMGQNEPDQGGQRGVIINTASVAAFEGQVGQAAYSASKGGIVGMTLPIARDLAPIGIRVMTIAPGLFGTPLLTSLPEKVCNFLASQVPFPSQLGDPAEYAHLVQAIIENPFLNGEVIRLDGAIRMQP
B5: SDR5C1 R130C, N-terminally His-tagged (enzyme)
chain: MAAACRSVKGLVAVITGGASGLGLATAERLVGQGASAVLLDLPNSGGEAQAKKLGNNCVFAPADVTSEKDVQTALALAKGKFGRVDVAVNCAGIAVASKTYNLKKGQTHTLEDFQRVLDVNLMGTFNVICLVAGEMGQNEPDQGGQRGVIINTASVAAFEGQVGQAAYSASKGGIVGMTLPIARDLAPIGIRVMTIAPGLFGTPLLTSLPEKVCNFLASQVPFPSRLGDPAEYAHLVQAIIENPFLNGEVIRLDGAIRMQP
B6: SDR5C1 N247S, N-terminally His-tagged (enzyme)
chain: MAAACRSVKGLVAVITGGASGLGLATAERLVGQGASAVLLDLPNSGGEAQAKKLGNNCVFAPADVTSEKDVQTALALAKGKFGRVDVAVNCAGIAVASKTYNLKKGQTHTLEDFQRVLDVNLMGTFNVIRLVAGEMGQNEPDQGGQRGVIINTASVAAFEGQVGQAAYSASKGGIVGMTLPIARDLAPIGIRVMTIAPGLFGTPLLTSLPEKVCNFLASQVPFPSRLGDPAEYAHLVQAIIENPFLSGEVIRLDGAIRMQP
B7: SDR5C1 P210S, N-terminally His-tagged (enzyme)
chain: MAAACRSVKGLVAVITGGASGLGLATAERLVGQGASAVLLDLPNSGGEAQAKKLGNNCVFAPADVTSEKDVQTALALAKGKFGRVDVAVNCAGIAVASKTYNLKKGQTHTLEDFQRVLDVNLMGTFNVIRLVAGEMGQNEPDQGGQRGVIINTASVAAFEGQVGQAAYSASKGGIVGMTLPIARDLAPIGIRVMTIAPGLFGTPLLTSLSEKVCNFLASQVPFPSRLGDPAEYAHLVQAIIENPFLNGEVIRLDGAIRMQP

Assays:
[1] = target: B7; assay: pull-down
[2] = target: B6; assay: pull-down
[3] = target: B4; assay: pull-down
[4] = target: B3; assay: pull-down
[5] = target: B5; assay: pull-down
[6] = target: T1, SDR5C1, wild type, N-terminally His-tagged (human), Q99714; assay: native gel or EMSA; conditions: remark: other sources report otherwise
T1 chain: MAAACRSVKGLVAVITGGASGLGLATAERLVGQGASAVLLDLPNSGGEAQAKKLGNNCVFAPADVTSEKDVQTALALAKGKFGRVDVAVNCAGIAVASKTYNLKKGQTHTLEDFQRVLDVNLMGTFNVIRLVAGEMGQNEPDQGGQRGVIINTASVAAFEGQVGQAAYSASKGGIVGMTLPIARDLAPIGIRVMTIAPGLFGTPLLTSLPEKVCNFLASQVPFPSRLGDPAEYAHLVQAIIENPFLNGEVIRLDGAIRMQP

SEC = target: the molecule itself; assay: SEC
native gel or EMSA = target: the molecule itself; assay: native gel or EMSA

B1: TRMT10C, native (untagged) (enzyme)
chain: MSSKIPAVTYPKNESTPPSEELELDKWKTTMKSSVQEECVSTISSSKDEDPLAATREFIEMWRLLGREVPEHITEEELKTLMECVSNTAKKKYLKYLYTKEKVKKARQIKKEMKAAAREEAKNIKLLETTEEDKQKNFLFLRLWDRNMDIAMGWKGAQAMQFGQPLVFDMAYENYMKRKELQNTVSQLLESEGWNRRNVDPFHIYFCNLKIDGALHRELVKRYQEKWDKLLLTSTEKSHVDLFPKDSIIYLTADSPNVMTTFRHDKVYVIGSFVDKSMQPGTSLAKAKRLNLATECLPLDKYLQWEIGNKNLTLDQMIRILLCLKNNGNWQEALQFVPKRKHTGFLEISQHSQEFINRLKKAKT
- Complexed TRMT10C (mass percentage of the complex) [1]: 39.7%
- Complexed TRMT10C (mass percentage of the complex) [2]: 9.3%
- Complexed TRMT10C (mass percentage of the complex) [3]: 14.3%
- Complexed TRMT10C (mass percentage of the complex) [4]: 43%
- Complexed TRMT10C (mass percentage of the complex) [5]: 28.7%

B2: SDR5C1, wild type, N-terminally His-tagged, Q99714 1-261 (enzyme)
chain: MAAACRSVKGLVAVITGGASGLGLATAERLVGQGASAVLLDLPNSGGEAQAKKLGNNCVFAPADVTSEKDVQTALALAKGKFGRVDVAVNCAGIAVASKTYNLKKGQTHTLEDFQRVLDVNLMGTFNVIRLVAGEMGQNEPDQGGQRGVIINTASVAAFEGQVGQAAYSASKGGIVGMTLPIARDLAPIGIRVMTIAPGLFGTPLLTSLPEKVCNFLASQVPFPSRLGDPAEYAHLVQAIIENPFLNGEVIRLDGAIRMQP
- Tetramerized SDR5C1 (percent) [6]: 100%

Binder: B3
- stoichiometry N (SEC): 4
- Tetramerized SDR5C1 (percent) (native gel or EMSA): 100%

Binder: B4
- Tetramerized SDR5C1 (percent) (native gel or EMSA): 26%

Binder: B5
- stoichiometry N (SEC): 4
- Tetramerized SDR5C1 (percent) (native gel or EMSA): 100%

Binder: B6
- Tetramerized SDR5C1 (percent) (native gel or EMSA): 25.8%

Binder: B7
- stoichiometry N (SEC): 4
- Tetramerized SDR5C1 (percent) (native gel or EMSA): 100%
